# According to paper PMC7142922:
# Target: T1, TyrR (Escherichia coli DH5alpha) (UniProt P07604)
# T1 sequence: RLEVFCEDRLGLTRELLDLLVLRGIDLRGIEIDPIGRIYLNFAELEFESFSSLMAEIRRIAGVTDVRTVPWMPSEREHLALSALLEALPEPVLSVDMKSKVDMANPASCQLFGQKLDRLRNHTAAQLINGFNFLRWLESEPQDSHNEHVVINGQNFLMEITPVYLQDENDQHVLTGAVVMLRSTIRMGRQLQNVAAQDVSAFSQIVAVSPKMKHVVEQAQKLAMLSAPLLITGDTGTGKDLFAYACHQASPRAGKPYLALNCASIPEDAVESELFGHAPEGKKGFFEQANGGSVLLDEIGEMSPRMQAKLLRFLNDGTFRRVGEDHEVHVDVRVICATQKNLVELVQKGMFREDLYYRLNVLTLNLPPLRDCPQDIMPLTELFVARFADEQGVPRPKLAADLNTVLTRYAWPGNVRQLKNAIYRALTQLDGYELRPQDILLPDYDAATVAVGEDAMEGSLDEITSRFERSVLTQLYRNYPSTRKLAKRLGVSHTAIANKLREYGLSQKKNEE
# Test: EMSA
# Conditions: TyrR EMSA: 50 mM Tris-HCl pH 7.8, 50 mM NaCl, 3 mM Mg acetate, 0.1 mM EDTA, 0.1 mM DTT, 25 ug/mL BSA, 0.1 mM Phe, 0.1 mM ATP, ~15 nM DNA, 37 C 30 min, 2% …
sequence,measurement,value
CTGCAGCACTATCACTCTTTTGTCTTGGTAAGAATAATGGTATGTGACTGCGAATGCACCTGCTTTGTGCAGGGGTGATGACGAGTTGCGTAAAAAGAAAGCACTTGTAAACCCTTTTAGCATTACTCACTTTATTTTGCATAGCATGTGATGTGCGGAGAAATCTTAGCAGTGAGCAGACCAATAAATAGAATATTCAGAACGGTGTTATTTTATTGACATCGTCAGCGGGGGAGGCGTTTAATTTATATTCGGATGTCGTAAAGCTTAA (double strand) [deltaTB fragment without TyrR boxes (274 bp)],binding,no binding
